Assay [1] addresses FZD2 CRD (CRD2) CRD (Homo sapiens) (UniProt Q14332). As to conditions: cited from earlier work.
The target in assay [2] is CSPG4 D1401-560 401-560 (Homo sapiens) (UniProt Q6UVK1). The conditions noted are these: cited from earlier work.
The target of assay [3] is Frizzled-2 cysteine-rich domain Fc fusion (FZD2-CRD-Fc, 'CRD2') (UniProt Q14332). Nature of the assay: Bio-layer interferometry (Octet Red 96, ForteBio). As to conditions: 25°C, PBS (composition not stated).
For assay [4], the target named is CSPG4 domain 1 fragment, residues 401-560 (D1401-560), C-terminal GFP (UniProt Q6UVK1). Put plainly: Bio-layer interferometry (Octet Red 96, ForteBio). The conditions noted are these: pH 7.5; 25°C; PBS (composition not stated).
The target in assay [5] is TcdB-biotin (biotinylated full-length TcdB) (Clostridioides difficile (VPI 10463 …, UniProt P18177 1-2366)). Put plainly: ELISA. The conditions noted are these: both partners purified.

CSPG4 domain 1 fragment, residues 401-560 (D1401-560), C-terminal GFP, sequence (Q6UVK1 whole entry, the tested form may be a part): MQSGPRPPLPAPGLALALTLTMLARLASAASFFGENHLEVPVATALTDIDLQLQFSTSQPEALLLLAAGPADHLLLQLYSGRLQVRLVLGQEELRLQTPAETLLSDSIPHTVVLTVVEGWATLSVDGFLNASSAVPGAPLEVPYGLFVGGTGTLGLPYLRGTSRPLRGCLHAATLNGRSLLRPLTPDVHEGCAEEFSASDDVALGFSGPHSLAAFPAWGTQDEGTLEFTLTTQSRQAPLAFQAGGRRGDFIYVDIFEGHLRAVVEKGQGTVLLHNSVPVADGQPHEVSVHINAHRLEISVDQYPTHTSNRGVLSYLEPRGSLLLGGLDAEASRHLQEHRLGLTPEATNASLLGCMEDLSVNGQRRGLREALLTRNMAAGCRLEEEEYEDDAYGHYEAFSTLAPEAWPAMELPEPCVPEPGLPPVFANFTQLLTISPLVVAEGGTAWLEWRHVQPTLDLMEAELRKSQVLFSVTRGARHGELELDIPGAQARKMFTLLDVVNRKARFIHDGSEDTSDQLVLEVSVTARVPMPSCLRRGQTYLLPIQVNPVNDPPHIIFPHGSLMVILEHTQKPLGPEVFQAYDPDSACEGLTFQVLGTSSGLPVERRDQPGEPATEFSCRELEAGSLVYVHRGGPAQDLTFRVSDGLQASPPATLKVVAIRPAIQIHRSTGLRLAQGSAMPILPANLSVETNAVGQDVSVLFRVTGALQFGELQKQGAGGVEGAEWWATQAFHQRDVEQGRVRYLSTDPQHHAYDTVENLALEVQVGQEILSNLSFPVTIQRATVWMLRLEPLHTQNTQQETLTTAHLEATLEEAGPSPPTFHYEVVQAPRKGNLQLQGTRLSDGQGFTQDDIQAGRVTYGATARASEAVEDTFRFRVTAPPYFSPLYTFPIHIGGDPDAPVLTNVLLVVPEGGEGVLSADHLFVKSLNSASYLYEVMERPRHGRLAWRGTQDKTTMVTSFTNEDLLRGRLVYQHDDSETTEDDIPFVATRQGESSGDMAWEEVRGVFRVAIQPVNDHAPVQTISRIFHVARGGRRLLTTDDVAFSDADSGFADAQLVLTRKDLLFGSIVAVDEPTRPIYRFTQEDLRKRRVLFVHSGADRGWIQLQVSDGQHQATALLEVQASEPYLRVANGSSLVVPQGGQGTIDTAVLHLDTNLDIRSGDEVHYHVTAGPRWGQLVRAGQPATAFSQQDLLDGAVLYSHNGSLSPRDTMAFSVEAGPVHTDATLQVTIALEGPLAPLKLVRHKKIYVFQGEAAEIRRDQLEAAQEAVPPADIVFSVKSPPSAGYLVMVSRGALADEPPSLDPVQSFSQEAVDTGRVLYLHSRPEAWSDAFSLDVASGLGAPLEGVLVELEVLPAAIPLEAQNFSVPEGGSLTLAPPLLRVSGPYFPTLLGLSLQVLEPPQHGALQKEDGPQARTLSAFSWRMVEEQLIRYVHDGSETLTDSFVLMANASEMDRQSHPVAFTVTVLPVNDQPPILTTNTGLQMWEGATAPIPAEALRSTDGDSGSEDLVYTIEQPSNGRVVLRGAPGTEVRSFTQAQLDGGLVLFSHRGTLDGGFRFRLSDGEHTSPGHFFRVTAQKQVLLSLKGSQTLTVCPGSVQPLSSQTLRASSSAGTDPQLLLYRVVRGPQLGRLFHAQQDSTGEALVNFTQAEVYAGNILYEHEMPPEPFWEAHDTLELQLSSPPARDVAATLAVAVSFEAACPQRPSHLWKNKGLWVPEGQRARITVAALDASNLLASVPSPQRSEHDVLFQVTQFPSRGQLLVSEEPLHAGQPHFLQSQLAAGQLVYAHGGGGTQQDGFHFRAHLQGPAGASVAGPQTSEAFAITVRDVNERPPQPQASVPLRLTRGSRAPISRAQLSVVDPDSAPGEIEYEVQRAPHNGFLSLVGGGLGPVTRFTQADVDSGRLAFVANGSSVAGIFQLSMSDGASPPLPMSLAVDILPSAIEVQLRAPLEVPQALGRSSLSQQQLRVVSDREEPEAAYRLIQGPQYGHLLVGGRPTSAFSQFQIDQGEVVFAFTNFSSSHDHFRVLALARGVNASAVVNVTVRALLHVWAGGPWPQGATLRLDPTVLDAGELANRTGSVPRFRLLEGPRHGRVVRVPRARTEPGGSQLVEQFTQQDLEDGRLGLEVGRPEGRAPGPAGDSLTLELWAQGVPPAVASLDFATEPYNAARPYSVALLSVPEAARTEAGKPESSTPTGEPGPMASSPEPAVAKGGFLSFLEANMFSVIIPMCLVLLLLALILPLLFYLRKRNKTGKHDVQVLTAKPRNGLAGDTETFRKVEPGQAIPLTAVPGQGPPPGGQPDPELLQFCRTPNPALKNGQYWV

For TcdB (from UniProt P18177), the dissociation constant (Kd) (commonly the equilibrium constant for the complex coming apart) in assay [1] is 0.019 µM; in assay [2], 0.029 µM.
With “Toxin B (TcdB), full length, C-terminal 6xHis”, the values for the KD result in assay [3] (pH 5), in assay [3] (pH 7.5) and in assay [4] were “approximately 1 μM”, “approximately 12 nM” and “approximately 10 nM”, respectively.

B1: CSPG4 domain 1 fragment D1_(401-560) with C-terminal GFP tag (domain or fragment, UniProt Q6UVK1 401-560, looked up)
chain: LAPEAWPAMELPEPCVPEPGLPPVFANFTQLLTISPLVVAEGGTAWLEWRHVQPTLDLMEAELRKSQVLFSVTRGARHGELELDIPGAQARKMFTLLDVVNRKARFIHDGSEDTSDQLVLEVSVTARVPMPSCLRRGQTYLLPIQVNPVNDPPHIIFPHG
notes: not shown: GFP, C-terminal, kept
Regarding B1, in assay [5], the binding result was “binds”.

(Values after PMC8982864 (PLoS Biology, 2022).)
